From article PMC8366450, “Human CPPED1 belongs to calcineurin‐like metallophosphoesterase superfamily and dephosphorylates PI3K‐AKT pathway component PAK4” (Journal of Cellular and Molecular Medicine, 2021) come the findings set out here.

First the molecules themselves.
B1: CRK proto-oncogene, adaptor protein (natural protein, human, UniProt P46108 1-304, looked up)
chain: MAGNFDSEERSSWYWGRLSRQEAVALLQGQRHGVFLVRDSSTSPGDYVLSVSENSRVSHYIINSSGPRPPVPPSPAQPPPGVSPSRLRIGDQEFDSLPALLEFYKIHYLDTTTLIEPVSRSRQGSGVILRQEEAEYVRALFDFNGNDEEDLPFKKGDILRIRDKPEEQWWNAEDSEGKRGMIPVPYVEKYRPASASVSALIGGNQEGSHPQPLGGPEPGPYAQPSVNTPLPNLQNGPIYARVIQKRVPNAYDKTALALEVGELVKVTKINVSGQWEGECNGKRGHFPFTHVRLLDQQNPDEDFS
notes: CRK proto-oncogene, adaptor protein, human, as on the HuProt v3.1 array; source: S. cerevisiae, purified (GST tag); on bought array: HuProt v3.1, Cambridge Protein Arrays
B2: Cell division cycle associated 3 (natural protein, human, UniProt Q99618 1-268, looked up)
chain: MGSAKSVPVTPARPPPHNKHLARVADPRSPSAGILRTPIQVESSPQPGLPAGEQLEGLKHAQDSDPRSPTLGIARTPMKTSSGDPPSPLVKQLSEVFETEDSKSNLPPEPVLPPEAPLSSELDLPLGTQLSVEEQMPPWNQTEFPSKQVFSKEEARQPTETPVASQSSDKPSRDPETPRSSGSMRNRWKPNSSKVLGRSPLTILQDDNSPGTLTLRQGKRPSPLSENVSELKEGAILGTGRLLKTGGRAWEQGQDHDKENQHFPLVES
notes: Cell division cycle associated 3, human, as on the HuProt v3.1 array; also called CDCA3; source: S. cerevisiae, purified (GST tag); on bought array: HuProt v3.1, Cambridge Protein Arrays
B3: HIV-1 Tat interactive protein 2 (natural protein, human, UniProt Q9BUP3 1-242, looked up)
chain: MAETEALSKLREDFRMQNKSVFILGASGETGRVLLKEILEQGLFSKVTLIGRRKLTFDEEAYKNVNQEVVDFEKLDDYASAFQGHDVGFCCLGTTRGKAGAEGFVRVDRDYVLKSAELAKAGGCKHFNLLSSKGADKSSNFLYLQVKGEVEAKVEELKFDRYSVFRPGVLLCDRQESRPGEWLVRKFFGSLPDSWASGHSVPVVTVVRAMLNNVVRPRDKQMELLENKAIHDLGKAHGSLKP
notes: also called HTATIP2; source: S. cerevisiae, purified (GST tag); on bought array: HuProt v3.1, Cambridge Protein Arrays
B4: Interferon-stimulated exonuclease gene 20 (enzyme)
chain: not shown
notes: Interferon-stimulated exonuclease gene 20, human, as on the HuProt v3.1 array; also called ISG20; source: S. cerevisiae, purified (GST tag); on bought array: HuProt v3.1, Cambridge Protein Arrays

This experiment concerns the target T1, human recombinant CPPED1 with N-terminal His-V5 dual tag (human, UniProt Q9BRF8 1-314).
T1 construct: Calcineurin-like phosphoesterase domain-containing protein 1 (CPPED1), human; cloned into PSF-OXB20-NH2-6HIS-V5-TEV; 38.9 kDa including the His-V5 dual tag; The vector name holds a TEV site; no cleavage is told; also called calcineurin-like phosphoesterase domain-containing protein 1; purified recombinant CPPED1; not shown: His6, N-terminal, kept; V5, N-terminal, kept
Kind of experiment: peptide or protein array; HuProt v3.1 human proteome microarray; >20 000 human recombinant proteins immobilised on the array; purified His-V5-CPPED1 applied. The note with it: both partners purified.
Regarding B1, the binding result is “binds”.

With B2, the binding result is recorded as “binds”. For the molecule B3, the binding result is “binds”.

On to B4, for which the binding result is listed as “binds”.
